B1: CBL-interacting serine/threonine-protein kinase 1 (Arabidopsis thaliana (Mouse-ear cress)), Q8RWC9 (parent)
chain: MVRRQEEEKKAEKGMRLGKYELGRTLGEGNFGKVKFAKDTVSGHSFAVKIIDKSRIADLNFSLQIKREIRTLKMLKHPHIVRLHEVLASKTKINMVMELVTGGELFDRIVSNGKLTETDGRKMFQQLIDGISYCHSKGVFHRDLKLENVLLDAKGHIKITDFGLSALPQHFRDDGLLHTTCGSPNYVAPEVLANRGYDGAASDIWSCGVILYVILTGCLPFDDRNLAVLYQKICKGDPPIPRWLSPGARTMIKRMLDPNPVTRITVVGIKASEWFKLEYIPSIPDDDDEEEVDTDDDAFSIQELGSEEGKGSDSPTIINAFQLIGMSSFLDLSGFFEQENVSERRIRFTSNSSAKDLLEKIETAVTEMGFSVQKKHAKLRVKQEERNQKGQVGLSVTAEVFEIKPSLNVVELRKSYGDSCLYRQLYERLLKDVGTSSPEQEIVT

Variants of: B1
Details: with cnbl2_arath CBL2, Q8LAS7

effect of a mutation on the interaction	Variant
decreasing interaction	P315A
disrupting interaction	A320P
disrupting interaction	L332D
decreasing interaction	I324D
disrupting interaction	F335P
decreasing interaction	S327L
